The values below come from patent publication US20200317768A1 (published 2020).

Assay [1] addresses T1, cynomolgus monkey FcγRIIa1 extracellular domain, C-terminal His-tag (cynomolgus monkey).
T1 construct: also called cyno FcγRIIa1; cynoFcgRIIa1; not shown: His-tag added to C-terminus
T1 chain: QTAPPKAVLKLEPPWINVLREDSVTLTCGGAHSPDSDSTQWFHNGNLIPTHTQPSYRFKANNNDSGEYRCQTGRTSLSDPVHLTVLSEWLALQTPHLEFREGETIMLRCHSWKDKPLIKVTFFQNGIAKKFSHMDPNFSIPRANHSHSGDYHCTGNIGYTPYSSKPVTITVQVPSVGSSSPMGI
The assay can be described thus: SPR (Biacore), KD of SG1 / KD of variant.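 Further: relative to parent M103205H795-SG1 carrying the SG1 human heavy chain constant region.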 The protocol: (§1) The kinetic analysis of interactions between these antibodies and FcγR was carried out using BIACORE® T200 or BIACORE® 4000 (GE Healthcare). HBS-EP+ (GE Healthcare) was used as the running buffer, and the measurement temperature was set to 25° C. A chip produced by immobilizing Protein A. Protein A/G or mouse anti-human IgG kappa light chain (BD Biosciences) onto a Series S Sensor Chip CM4 or CM5 (GE Healthcare) by the amine-coupling method was used. […] After the measurement, the antibody captured on the chip was washed off by allowing reaction with 10 mM glycine-HCl, pH1.5 and 25 mM NaOH so that the chip was regenerated and used repeatedly. The sensorgrams obtained as measurement results were analyzed by the 1:1 Langmuir binding model using the BIACORE® Evaluation Software to calculate the binding rate constant ka (L/mol/s) and dissociation rate constant kd (l/s), and the dissociation constant KD (mol/L) was calculated from these values. […] Regarding such interactions, KD values were calculated using the following 1:1 binding model described in BIACORE® T100 Software Handbook BR1006-48 Edition AE.
(§2) The behavior of interacting molecules according to the 1:1 binding model on BIACORE® can be described by Equation 1: Req=C·R max/(KD+C)+RI, wherein, Req is a plot of steady-state binding levels to analyte concentration. C is concentration, RI is bulk refractive index contribution in the sample, and Rmax is analyte binding capacity of the surface. When this equation is rearranged, KD can be expressed as Equation 2: KD=C·Rmax/(Req−RI)−C. KD can be calculated by substituting the values of Rmax, RI, and C into Equation 1 or Equation 2. From the current measurement conditions, RI=0, C=2 μmol/L can be used.
(In general: In SPR one partner is held on a chip, and binding of the other changes the refractive index at the surface.)

For assay [2], the target named is T2, cynomolgus monkey FcγRIIa2 extracellular domain, C-terminal His-tag (cynomolgus monkey).
T2 construct: also called cyno FcγRIIa2; cynoFcgRIIa2; not shown: His-tag added to C-terminus
T2 chain: T1 chain with P95T, T121A, I127K, A128S, K130N, D135N, R142Q
Kind of assay: SPR (Biacore), KD of SG1 / KD of variant.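 Further: relative to parent M103205H795-SG1 carrying the SG1 human heavy chain constant region.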 The protocol: as §1, §2

Assay [3] deals with T3, cynomolgus monkey FcγRIIa3 extracellular domain, C-terminal His-tag (cynomolgus monkey).
T3 construct: also called cyno FcγRIIa3; cynoFcgRIIa3; not shown: His-tag added to C-terminus
T3 chain: T1 chain with P95T, T121A, A128S, H133P, D135N
The assay can be described thus: SPR (Biacore), KD of SG1 / KD of variant.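 Further: relative to parent M103205H795-SG1 carrying the SG1 human heavy chain constant region.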 As for the experimental part:
as §1, §2

Assay [4] deals with T4, cynomolgus monkey FcγRIIIaS extracellular domain, C-terminal His-tag (cynomolgus monkey, UniProt A3RFZ7 21-206 (rhesus entry)).
T4 construct: also called cyno FcγRIIIaS; cynoFcγRIIIaS; not shown: His-tag added to C-terminus
The assay can be described thus: SPR (Biacore), KD of SG1 / KD of variant.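 Further: relative to parent M103205H795-SG1 carrying the SG1 human heavy chain constant region.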 As for the experimental part:
as §1, §2

In assay [5] the target is T5, human FcγRIIaH extracellular domain, C-terminal His-tag (human, UniProt P12318 34-217).
T5 construct: also called human FcγRIIa (type H); FcgRIIaH; not shown: His-tag added to C-terminus
T5 sequence: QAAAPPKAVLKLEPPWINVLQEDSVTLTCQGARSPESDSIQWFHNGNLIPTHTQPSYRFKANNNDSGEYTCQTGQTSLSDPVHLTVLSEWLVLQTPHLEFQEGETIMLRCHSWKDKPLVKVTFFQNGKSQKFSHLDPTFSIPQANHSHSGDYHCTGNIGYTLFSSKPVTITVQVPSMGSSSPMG
Kind of assay: SPR (Biacore), KD of SG1 / KD of variant. As for the experimental part:
as §1, §2

Assay [6] concerns the target T6, human FcγRIIaR extracellular domain, C-terminal His-tag (human, UniProt P12318 34-217).
T6 construct: also called human FcγRIIa (type R); FcgRIIaR; not shown: His-tag added to C-terminus
T6 chain: T5 sequence with H134R
Kind of assay: SPR (Biacore), KD of SG1 / KD of variant. The protocol:
as §1, §2

For assay [7], the target named is T7, human FcγRIIb extracellular domain, C-terminal His-tag (human, UniProt P31994 43-217).
T7 construct: also called FcgRIIb (human); not shown: His-tag added to C-terminus
T7 sequence: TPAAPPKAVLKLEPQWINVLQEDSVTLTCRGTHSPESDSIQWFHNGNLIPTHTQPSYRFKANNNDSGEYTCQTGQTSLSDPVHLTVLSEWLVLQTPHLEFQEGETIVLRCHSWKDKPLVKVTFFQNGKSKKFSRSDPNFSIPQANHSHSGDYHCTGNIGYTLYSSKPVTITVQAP
The assay can be described thus: SPR (Biacore), KD of SG1 / KD of variant. As for the experimental part: as §1, §2

Assay [8] concerns the target T8, human FcγRIIIaV extracellular domain, C-terminal His-tag (human, UniProt P08637 17-208).
T8 construct: also called FcgRIIIaV; not shown: His-tag added to C-terminus
The assay can be described thus: SPR (Biacore), KD of SG1 / KD of variant. The protocol:
as §1, §2

The target in assay [9] is T1, cynomolgus monkey FcγRIIa1 …. Kind of assay: SPR (Biacore), antibody captured, FcgR analyte, 25 C. As for the experimental part: as §1, §2
Assay [10] has as its target T3, cynomolgus monkey FcγRIIa3 …. The description is as above. As for the experimental part: as §1, §2
Assay [11] deals with T4, cynomolgus monkey FcγRIIIaS …. Described as above. The protocol:
as §1, §2

In assay [12] the target is T5, human FcγRIIaH extracellular domain, …. The description is as above. As for the experimental part:
as §1, §2

In assay [13] the target is T6, human FcγRIIaR extracellular domain, …. The assay is described as above. The protocol: as §1, §2
In assay [14] the target is T7, human FcγRIIb extracellular domain, …. The assay is described as above. As for the experimental part:
as §1, §2

Assay [15] deals with T8, human FcγRIIIaV extracellular domain, …. The description is as above. The protocol: as §1, §2

Positions count from the first letter of the chain named.

T4 sequence (A3RFZ7 21-206): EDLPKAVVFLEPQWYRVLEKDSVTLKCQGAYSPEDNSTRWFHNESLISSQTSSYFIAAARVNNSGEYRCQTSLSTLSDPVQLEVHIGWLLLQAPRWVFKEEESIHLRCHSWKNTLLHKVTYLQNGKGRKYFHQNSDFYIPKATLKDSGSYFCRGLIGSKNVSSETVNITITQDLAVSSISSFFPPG
T8 sequence (P08637 17-208 F176V): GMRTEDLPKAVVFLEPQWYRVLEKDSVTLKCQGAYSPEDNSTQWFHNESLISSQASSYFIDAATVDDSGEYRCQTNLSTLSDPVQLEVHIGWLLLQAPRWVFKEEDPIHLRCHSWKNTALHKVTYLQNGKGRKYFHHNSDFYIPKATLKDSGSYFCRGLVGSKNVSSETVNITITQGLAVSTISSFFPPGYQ

B1: M103205H795-MY316/M103202L889-SK1 (antibody, human IgG1, kappa)
heavy: QVTLKESGPVLVKPTETLTLTCTVSGIDLSHDDISWVRQAPGKGLEWVGIISYAGSTYYASWAKGRLTISKDTSKNQVVLTMTNMDPVDTATYYCARGVPAYSHGGDLWGQGTLVTVSSASTKGPSVFPLAPSSKSTSGGTAALGCLVKDYFPEPVTVSWNSGALTSGVHTFPAVLQSSGLYSLSSVVTVPSSSLGTQTYICNVNHKPSNTKVDKKVEPKSCDKTHTCPPCPAPELLLGPSVFLFPPKPKDTLMISRTPEVTCVVVDVSEEDPEVKFNWYVDGVEVHNAKTKPREELYNSTYRVVSVLTVLHQDWLNGKEYKCKVSNKALPKPIEKTISKAKGQPREPQVYTLPPSREEMTKNQVSLTCLVKGFYPSDIAVEWESNGQPENNYKTTPKVLDSDGSFFLYSKLTVDKSRWQQGNVFSCSVMHEALHNHYTQKSLSLSP
light: DIVMTQSPATLSLSPGERATLSCTSSQSVYHANWLSWFQQKPGQPPKLLIYWASTLAYGVPSRFSGSGSGTDFTLTISSLQPEDAATYYCAGGYGGGRYAFGQGTKVEIKRTVAAPSVFIFPPSDEQLKSGTASVVCLLNNFYPREAKVQWKVDNALQSGNSQESVTEQDSKDSTYSLSSTLTLSKADYEKHKVYACEVTHQGLSSPVTKSFNRGEC
The term Kd denotes the equilibrium constant for the complex coming apart. As to B1, the “KD fold (SG1 = 1)” value in [1] is 0.6 fold; in [2], 0.6 fold; in [3], 0.6 fold; in [4], 0.15 fold; in [5] it was 1.6 fold; in assay [6], 1.1 fold. The “KD fold (SG1 = 1)” value in assay [7] came to 1.2 fold; in assay [8], 0.05 fold. The Kd was determined as 5.1 µM in assay [9]; 22 µM in assay [10]; 2.4 µM in assay [11]; 0.44 µM in assay [12]; 1.1 µM in assay [13]; 4 µM in assay [14]. This molecule came in with a Kd in [15] of 17 µM.
